Measured values published in article PMC6033261 (Methods in molecular biology (Clifton, N.J.), 2015).

Biological target: His-Rab7 (UniProt P51149 1-207)
Experiment: bead-based flow cytometry

Chain of His-Rab7 (P51149 whole entry): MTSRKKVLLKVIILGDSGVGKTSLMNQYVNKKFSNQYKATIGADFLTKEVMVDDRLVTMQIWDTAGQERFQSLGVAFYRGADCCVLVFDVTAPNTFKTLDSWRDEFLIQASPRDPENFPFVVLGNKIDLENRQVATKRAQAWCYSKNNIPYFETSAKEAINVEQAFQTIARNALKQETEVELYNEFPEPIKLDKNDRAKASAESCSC

Kd: 1870 ± 250 nM
B1: GST-RILP (Rab binding domain of RILP only) (domain or fragment, UniProt Q96NA2 240-316, looked up)
chain: QCRFSREEFEQILQERNELKAKVFLLKEELAYFQRELLTDHRVPGLLLEAMKVAVRKQRKKIKAKMLGTPEEAESSE
